Reference: the supplement of paper PMC10567573

B1: NECAB1 (parent)
chain: NLDTEELCEYFSQHLGEYENVLAA
B2: KRT18 (parent)
chain: KSQDLAKIMADIRAQYDELARKNR

Variants of: B1
Assay: protein stability index of a GFP-peptide fusion (GPS, HEK-293T) (PSI 1-6); higher = more stable
Conditions: c terminus: a fixed tail appended
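Note: lentivirally expressed fusions sorted by FACS into six bins by GFP to DsRed ratio, PSI derived from sequencing read proportions per bin multiplied by bin number.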

Protein stability index of substitutions, site by site:
Y10: H 4.12 | L 4.08 | A 4.25 | G 4.44 | F 3.17 | E 4.69 | V 4.24 | K 4.33 | M 4.18 | N 4.58 | P 4.47 | Q 4.67 | W 2.22 | C 4.46 | S 5.13 | T 4.59 | I 3.97 | D 4.99 | R 4.08
C8: F 3.26 | H 4.07 | V 3.04 | E 4.36 | A 2.98 | Y 3.46 | T 3.62 | P 4.44 | S 3.83 | D 4.39 | W 3.28 | K 3.9 | G 4.56 | I 2.52 | L 2.86 | Q 3.52 | M 3.41 | R 3.17 | N 4.18
F11: C 4.03 | D 4.87 | W 3.85 | I 3.59 | P 5.13 | R 5.19 | L 2 | V 3.9 | Y 4.33 | N 5.01 | T 4.82 | G 4.55 | H 4.26 | Q 4.44 | K 5.08 | M 3.48 | E 5.25 | S 4.65 | A 4.18
E5: S 1.93 | M 1.63 | G 1.99 | Q 1.97 | R 2.13 | Y 1.69 | K 1.94 | N 2.4 | L 1.89 | I 1.99 | F 1.47 | W 1.98 | D 3.04 | C 1.92 | P 3.13 | H 2.1 | V 2.1 | A 1.56 | T 2.4
L2: P 1.8 | R 4 | Y 2.78 | S 4.11 | V 1.79 | I 2.23 | W 2.21 | G 3.85 | Q 4.12 | N 3.72 | T 3.52 | H 3.52 | K 3.9 | A 2.99 | M 3.46 | E 4.97 | F 3.05 | C 2.25 | D 4.72
S12: D 4 | H 2.88 | A 2.59 | G 4 | C 2.53 | F 3.17 | E 3.83
E6: W 2.23 | T 2.34 | R 1.8 | C 2.68 | S 1.92 | K 2.08 | P 3.82 | L 1.74 | Y 2.46 | A 2.27 | Q 1.64 | M 1.71 | F 2.41 | D 2.53 | H 2 | G 1.81 | N 2.42 | I 2.13 | V 2.38
D3: V 1.53 | H 2.11 | M 1.88 | L 2.01 | E 3.24 | S 2.55 | F 2.36 | Q 1.94 | N 1.64 | T 2.57 | W 2.12 | G 1.48 | C 2.12 | R 1.59 | A 2.25 | P 3.14 | Y 1.94 | I 1.41 | K 1.86
E9: L 1.91 | Q 2.05 | H 2.38 | D 3.15 | M 1.9 | C 2.55 | T 2.3 | G 2.97 | S 2.04 | V 1.93 | Y 1.76 | K 2.25 | A 1.99 | P 3.97 | I 2.47 | R 1.97 | F 1.8 | N 2.21 | W 1.77
N1: Q 3.41 | T 3.22 | M 3.17 | G 3.68 | D 1.87 | Y 1.83 | F 1.68 | A 2.94 | C 2.67 | R 3.54 | K 3.33 | V 3.12 | L 2.53 | E 3.7 | S 3.93 | P 3.68 | I 2.66 | W 1.71 | H 3.35
L7: F 3.55 | V 4.59 | T 4.42 | K 4.7 | H 4.63 | C 3.85 | G 4.79 | W 3.85 | Y 3.94 | R 4.49 | Q 4.13 | E 4.77 | D 4.92 | M 4.26 | I 3.01 | A 4.43 | P 4.29 | S 4.53 | N 4.63
T4: C 2.64 | D 4.33 | S 3.32 | Y 2.97 | M 2.66 | A 2.75 | G 3.91 | Q 3.59 | F 2.32 | P 3.56 | L 2.15 | K 2.69 | H 4.26 | R 3.05 | I 2.41 | V 2.12 | N 3.62 | E 4.15 | W 2.63

Variants of: B2
Assay: as above
Conditions: c terminus: a fixed tail appended

Protein stability index, by site and new letter:
L19: G 3.44 | Q 3.59 | K 3.74 | Y 2.73 | T 3.58 | I 3.12 | A 3.52 | P 2.98 | C 3.08 | V 3.27 | M 3.2 | W 2.38 | F 2.46 | H 3.39 | S 3.71 | E 4.01 | R 3.63 | N 3.63 | D 3.75
E18: V 2.31 | Y 3.24 | W 1.96 | T 2.35
N23: M 2.02 | H 2.56 | F 2.07 | C 3.06 | I 2.58 | Y 1.94 | D 3.86 | R 2.5 | S 3.29 | P 3.52 | T 2.88 | Q 2.65 | G 2.61 | A 2.9 | K 2.87 | E 3.83 | V 3.04 | W 2.33 | L 2.51
R24: P 3.16 | W 2.13 | H 2.81 | Q 2.95 | M 3.07 | V 2.57 | I 2.1 | K 3.46 | F 2.79 | G 3.57 | A 3.33 | C 1.92 | E 3.17 | T 3.13 | L 1.69 | N 3.13 | Y 2.01 | S 2.61 | D 3.81
R21: Q 2.59 | K 2.9 | F 2.39 | G 3.2 | M 2.83 | W 2.47 | T 2.83 | C 2.68 | E 2.14 | Y 2.65 | I 3.24 | H 3.26 | S 2.95 | A 3.1 | L 2.5 | D 2.36 | V 1.91 | P 3.55 | N 2.96
A20: S 2.87 | V 2.85 | I 2.47 | L 2.03 | E 4.03 | T 2.52 | D 3.42 | M 2.51 | K 3.19 | W 1.67 | Q 2.94 | Y 1.71 | F 2.69 | C 2.38 | N 2.93 | G 3.19 | P 2.98 | H 3.12 | R 3.09
K22: T 2.45 | C 2.32 | G 3.04 | F 2.43 | A 2.67 | E 3.04 | Y 2.29 | Q 2.92 | P 2.85 | D 3.35 | I 1.89 | W 1.88 | L 2.43 | N 2.7 | R 2.79 | M 2.44 | H 3.1 | V 2.23 | S 2.88
